{"source": "patent US20080072349", "proteins": {"B1": {"name": "Rubisco Activase derived polypeptide 183H12 (protein)", "chain": "MVKEDKQTDGDRWRGLAYDTSDDQQDITRGKGMVDSVFQAPMGTGTHHAVLSSYEYVSQGLRQYNLDNMMDGFYIAPAFMDKLVVHITKNFLTLPNIKVPLILGIWGGKGQGKSFQCELVMAKMGINPIMMSAGELESGNAGEPAKLIRQRYREAADLIKKGKMCCLFINDLDAGAGRMGGTTQYTVNNQMVNATLMNIADNPTNVQLPGMYNKEENARVPIICTGNDFSTLYAPLIRDGRMEKFYWAPTREDRIGVCKGIFRTDKIKDEDIVRLVDQFPGQSIDFFGALRARVYDDEVRKFVESLGVEKIGKRLVNSREGPPVFEQPEMTYEKLMEYGNMLVMEQENVKRVQLAETYLSQAALGDANADAIGRGTFYGKTEEKEPSKLE"}, "B2": {"name": "Rubisco Activase derived polypeptide 214A4 (protein)", "chain": "B1 chain with M42T"}, "B3": {"name": "Rubisco Activase derived polypeptide 301H3 (protein)", "chain": "B1 chain with V257I, K310N"}, "B4": {"name": "Rubisco Activase derived polypeptide 182B11 (protein)", "chain": "B1 chain with M131I, R274T"}, "B5": {"name": "Rubisco Activase derived polypeptide 383A12 (protein)", "chain": "B1 chain with F168L, V257I, K310N"}, "B6": {"name": "wild type Rubisco Activase (Arabidopsis, short form RCA1) (protein)", "chain": "B1 chain with R274T"}, "B7": {"name": "Rubisco Activase derived polypeptide 079H6 (protein)", "chain": "B1 chain with M42T, M131I, R274T, R293K"}, "B8": {"name": "Rubisco Activase derived polypeptide 382D8 (protein)", "chain": "B1 chain with M131V, V257I, R274T, K310N"}, "B9": {"name": "Rubisco Activase derived polypeptide 301C7 (protein)", "chain": "B1 chain with F168L, V257I, R274T, K310N"}, "B10": {"name": "Rubisco Activase derived polypeptide 184B2 (protein)", "chain": "B1 chain with R274T, K310N"}, "B11": {"name": "Rubisco Activase derived polypeptide 126H4 (protein)", "chain": "B1 chain with M130R, R274T"}}, "target": "purified deactivated Arabidopsis Rubisco (Ribulose-1,5-bisphosphate carboxylase/oxygenase), O03042", "note": "Substitutions are numbered along the chain they refer to.", "data": [{"protein": "B1", "values": [{"measurement": "Activation of deactivated Rubisco assay, 25° C., relative activity (%)", "value": 109, "unit": "%"}, {"measurement": "Activity (3rd tier) 25° C. (µmol CO2 min^-1 mg^-1)", "value": 1.05}, {"measurement": "Activity (3rd tier) 40° C. (µmol CO2 min^-1 mg^-1)", "value": 0.857}, {"measurement": "Rubisco activation under catalytic conditions assay, 25° C., relative activity (%)", "value": 118, "unit": "%"}, {"measurement": "specific activity, Rubisco activation under catalytic conditions", "value": "The protein displaying the highest specific activity at either 25 °C or 40 °C was the best variant isolated in the first round, 183H12"}]}, {"protein": "B2", "values": [{"measurement": "Activation of deactivated Rubisco assay, 25° C., relative activity (%)", "value": 111, "unit": "%"}, {"measurement": "Activity (3rd tier) 25° C. (µmol CO2 min^-1 mg^-1)", "value": 1.07}, {"measurement": "Activity (3rd tier) 40° C. (µmol CO2 min^-1 mg^-1)", "value": 0.986}, {"measurement": "Rubisco activation under catalytic conditions assay, 25° C., relative activity (%)", "value": 101, "unit": "%"}]}, {"protein": "B3", "values": [{"measurement": "Activation of deactivated Rubisco assay, 25° C., relative activity (%)", "value": 101, "unit": "%"}, {"measurement": "Activity (3rd tier) 25° C. (µmol CO2 min^-1 mg^-1)", "value": 0.971}, {"measurement": "Activity (3rd tier) 40° C. (µmol CO2 min^-1 mg^-1)", "value": 0.86}, {"measurement": "Rubisco activation under catalytic conditions assay, 25° C., relative activity (%)", "value": 92, "unit": "%"}]}, {"protein": "B4", "values": [{"measurement": "Activity (3rd tier) 25° C. (µmol CO2 min^-1 mg^-1)", "value": 0.426}, {"measurement": "Activity (3rd tier) 40° C. (µmol CO2 min^-1 mg^-1)", "value": 0.359}]}, {"protein": "B5", "values": [{"measurement": "Activation of deactivated Rubisco assay, 25° C., relative activity (%)", "value": 93, "unit": "%"}, {"measurement": "Activity (3rd tier) 25° C. (µmol CO2 min^-1 mg^-1)", "value": 0.891}, {"measurement": "Activity (3rd tier) 40° C. (µmol CO2 min^-1 mg^-1)", "value": 0.92}, {"measurement": "Rubisco activation under catalytic conditions assay, 25° C., relative activity (%)", "value": 96, "unit": "%"}]}, {"protein": "B6", "values": [{"measurement": "Activation of deactivated Rubisco assay, 25° C., relative activity (%)", "value": 100, "unit": "%"}, {"measurement": "Activity (3rd tier) 25° C. (µmol CO2 min^-1 mg^-1)", "value": 0.96}, {"measurement": "Activity (3rd tier) 40° C. (µmol CO2 min^-1 mg^-1)", "value": 0.634}, {"measurement": "Rubisco activation under catalytic conditions assay, 25° C., relative activity (%)", "value": 100, "unit": "%"}]}, {"protein": "B7", "values": [{"measurement": "Activation of deactivated Rubisco assay, 25° C., relative activity (%)", "value": 111, "unit": "%"}, {"measurement": "Activity (3rd tier) 25° C. (µmol CO2 min^-1 mg^-1)", "value": 1.06}, {"measurement": "Activity (3rd tier) 40° C. (µmol CO2 min^-1 mg^-1)", "value": 0.94}, {"measurement": "Rubisco activation under catalytic conditions assay, 25° C., relative activity (%)", "value": 105, "unit": "%"}]}, {"protein": "B8", "values": [{"measurement": "Activation of deactivated Rubisco assay, 25° C., relative activity (%)", "value": 105, "unit": "%"}, {"measurement": "Activity (3rd tier) 25° C. (µmol CO2 min^-1 mg^-1)", "value": 1.01}, {"measurement": "Activity (3rd tier) 40° C. (µmol CO2 min^-1 mg^-1)", "value": 0.91}, {"measurement": "Rubisco activation under catalytic conditions assay, 25° C., relative activity (%)", "value": 98, "unit": "%"}]}, {"protein": "B9", "values": [{"measurement": "Activation of deactivated Rubisco assay, 25° C., relative activity (%)", "value": 94, "unit": "%"}, {"measurement": "Activity (3rd tier) 25° C. (µmol CO2 min^-1 mg^-1)", "value": 0.905}, {"measurement": "Activity (3rd tier) 40° C. (µmol CO2 min^-1 mg^-1)", "value": 0.889}, {"measurement": "Rubisco activation under catalytic conditions assay, 25° C., relative activity (%)", "value": 96, "unit": "%"}]}, {"protein": "B10", "values": [{"measurement": "Activity (3rd tier) 25° C. (µmol CO2 min^-1 mg^-1)", "value": 1.05}, {"measurement": "Activity (3rd tier) 40° C. (µmol CO2 min^-1 mg^-1)", "value": 0.889}]}, {"protein": "B11", "values": [{"measurement": "Activity (3rd tier) 25° C. (µmol CO2 min^-1 mg^-1)", "value": 0.616}, {"measurement": "Activity (3rd tier) 40° C. (µmol CO2 min^-1 mg^-1)", "value": 0.596}]}]}
